Changes are numbered by the printed parent chain.
Key:
Type in all cases: binding
[1] = Probe fluorescence ratio response to palmitate:BSA complex, relative to ADIFAB2 (ΔR/ΔRAD2); details: fluorescence response (R-Ro) relative to ADIFAB2; palmitate
Method: (§1) The intensity ratio (“R” value) for a given probe is determined. The ratio is calculated using the following formula: R=Fλ1/Fλ2 wherein, Fλ1, is the measured fluorescence intensities (intensity of sample with probe present minus intensity of sample without probe present) at wavelength 1 and Fλ2 is the measured fluorescence intensities (intensity of sample with probe present minus intensity of sample without probe present) at wavelength 2. Then, for a given probe, ΔR, the difference in R value between the measurement in the presence of the analyte and in the absence of the analyte, is calculated as follows: ΔR=R+analyte−R0 The ΔR value for a given probe is then compared to a reference probe, for example, ADIFAB or ADIFAB2, by ΔR/ΔRreference. This value is an indication of how dissimilar the new probe (derived by mutation of the template) is to the reference. By this method, probes with new and useful characteristics may be identified. Measurements of fluorescence intensities are obtained using standard techniques.
(§2) Mutant probes were screened in 96-well plates by fluorescence response to five fatty acids: arachidonate, linolenate, linoleate, oleate, and palmitate. Each fatty acid was prepared as a complex with BSA by slow addition of 50 mM stocks of fatty acid sodium salts at pH 11 to 600 μM BSA in HEPES buffer. During the formation of complexes, 15 μL aliquots were periodically measured with the reference probe, ADIFAB2, to determine the ΔR value upon excitation at 375 nm and fluorescence emission at 550 and 457 nm using a Fluorolog-3 spectrofluorometer (Jobin Yvon) (Richieri et al, Molecular and Cellular Biochemistry (1999), 192:87-94 & Richieri et al, J. Biol. Chem. (1996), 271:31068-31074). Complexes were prepared such that the final ΔR was approximately 0.4 which correspond to [FFAu] ranging from 100 to 1000 nM depending on FFA type. These complexes buffer or clamp the FFAu levels at fixed values and therefore ensure the accurate comparison of different probes with the same FFAu concentrations. In contrast, addition of FFAu alone (i.e. uncomplexed FFA) introduces considerable uncertainty in comparing different probes because the FFAu level will be affected by binding to the dispensing device, the walls of the multi-well plates and to the probe itself. Thus, the terms “buffer” and “clamp” as used in this particular context herein are taken to mean the ability of a carrier macromolecule to complex with an unbound metabolite so that the unbound metabolite is presented accurately for measurement purposes and is prevented from non-specific binding such as binding to laboratory apparatus.
(§3) Plates were prepared and read in two stages. First, complexes and fatty acid free BSA were diluted to 6 μM BSA in HEPES and added to the 96-well plate at 300 μL per well. A MultiProbe II HT (Perkin Elmer) (an automated liquid handling system) was used to facilitate plate preparation for high throughput screening, but any automated or manual pipetting system will suffice. The background fluorescence was then measured at the same wavelengths as used for ADIFAB2 using a Fluorolog-3 spectrofluorometer with an external Micromax 384 fluorescence plate reader (Jobin Yvon). In the second stage, 30 μL aliquots of the mutant probes were added to multiple wells of the plate, one for each fatty acid and one with fatty acid free BSA only, and the fluorescence intensity at each wavelength was again measured on the plate reader. After subtraction of the background fluorescence, the fluorescence ratio of each well was calculated.
(§4) The fluorescence response was quantitatively compared to ADIFAB2 to search for changes in magnitude and fatty acid profile; for example the response to one fatty acid relative to another. For each probe the ratio differences (AR) between wells with each fatty acid compared to a corresponding well with fatty acid free BSA were recorded. […]

[2] = Probe fluorescence ratio response to linoleate:BSA complex, relative to ADIFAB2 (ΔR/ΔRAD2); details: fluorescence response (R-Ro) relative to ADIFAB2; linoleate
Method: as §1, §2, §3, §4

[3] = Probe fluorescence ratio response to arachidonate:BSA complex, relative to ADIFAB2 (ΔR/ΔRAD2); details: fluorescence response (R-Ro) relative to ADIFAB2; arachidonate
Method: as §1, §2, §3, §4

[4] = Probe fluorescence ratio response to linolenate:BSA complex, relative to ADIFAB2 (ΔR/ΔRAD2); details: fluorescence response (R-Ro) relative to ADIFAB2; linolenate
Method: as §1, §2, §3, §4

[5] = Probe fluorescence ratio response to oleate:BSA complex, relative to ADIFAB2 (ΔR/ΔRAD2); details: fluorescence response (R-Ro) relative to ADIFAB2; oleate
Method: as §1, §2, §3, §4

B1: L1P7 B11: acrylodan-labeled rI-FABP mutein: Y14 I, L38 I, L72 V, Y117 wt (protein, UniProt P02693 2-132, looked up, variant Y14I L38I L72V)
Fatty acid-binding protein, …: AFDGTWKVDRNENIEKFMEKMGINVVKRKLGAHDNLKITITQEGNKFTVKESSNFRNIDVVFELGVDFAYSVADGTELTGTWTMEGNKLVGKFKRVDNGKELIAVREISGNELIQTYTYEGVEAKRIFKKE
modifications: acrylodan label
notes: acrylodan-labeled rI-FABP mutein: Y14 I, L38 I, L72 V, Y117 wt
With B1 the “ΔR/ΔRAD2 PA” value [1] was 0.8, the “ΔR/ΔRAD2 LA” value [2] was 0.9 and the “ΔR/ΔRAD2 AA” value [3] was 0.7. For the same molecule, the “ΔR/ΔRAD2 LNA” value [4] was 0.9 and the “ΔR/ΔRAD2 OA” value [5] was 0.4.

B2: L1P9 G10: acrylodan-labeled rI-FABP mutein: Y14 wt, L38 I, L72 G, Y117 wt (protein, UniProt P02693 2-132, looked up, variant L38I L72G)
Fatty acid-binding protein, …: B1 Fatty acid-binding protein, … with I14Y, V72G
modifications: acrylodan label
With B2 the “ΔR/ΔRAD2 PA” value [1] was 0.4, the “ΔR/ΔRAD2 LA” value [2] was 0.8 and the “ΔR/ΔRAD2 AA” value [3] was 1.0. For the same molecule, the “ΔR/ΔRAD2 LNA” value [4] was 0.7 and the “ΔR/ΔRAD2 OA” value [5] was 0.9.

B3: L1P3 D6: acrylodan-labeled rI-FABP mutein: Y14 L, L38 wt, L72 wt, Y117 wt (protein, UniProt P02693 2-132, looked up, variant Y14L)
Fatty acid-binding protein, …: B1 Fatty acid-binding protein, … with I14L, I38L, V72L
modifications: acrylodan label
In the case of B3, the “ΔR/ΔRAD2 PA” value [1] is reported as 0.5, the “ΔR/ΔRAD2 LA” value [2] is reported as 0.8 and the “ΔR/ΔRAD2 AA” value [3] is reported as 0.9. For the same molecule, the “ΔR/ΔRAD2 LNA” value [4] was 0.9 and the “ΔR/ΔRAD2 OA” value [5] was 0.5.

B4: L1P1 F7: acrylodan-labeled rI-FABP mutein: Y14 L, L38 M, L72 wt, Y117 F (protein, UniProt P02693 2-132, looked up, variant Y14L L38M Y117F)
Fatty acid-binding protein, …: B1 Fatty acid-binding protein, … with I14L, I38M, V72L, Y117F
modifications: acrylodan label
notes: acrylodan-labeled rI-FABP mutein: Y14 L, L38 M, L72 wt, Y117 F
With B4 the “ΔR/ΔRAD2 PA” value [1] was 0.5, the “ΔR/ΔRAD2 LA” value [2] was 0.9 and the “ΔR/ΔRAD2 AA” value [3] was 0.9. The “ΔR/ΔRAD2 LNA” value [4] was 1.0 and the “ΔR/ΔRAD2 OA” value [5] was 0.5.

B5: L1P16 G10: acrylodan-labeled rI-FABP mutein: Y14 W, L38 wt, L72 M, Y117 A (protein, UniProt P02693 2-132, looked up, variant Y14W L72M Y117A)
Fatty acid-binding protein, …: B1 Fatty acid-binding protein, … with I14W, I38L, V72M, Y117A
modifications: acrylodan label
notes: acrylodan-labeled rI-FABP mutein: Y14 W, L38 wt, L72 M, Y117 A
In the case of B5, the “ΔR/ΔRAD2 PA” value [1] is reported as 0.8, the “ΔR/ΔRAD2 LA” value [2] is reported as 1.1 and the “ΔR/ΔRAD2 AA” value [3] is reported as 0.9. For the same molecule, the “ΔR/ΔRAD2 LNA” value [4] was 1.3 and the “ΔR/ΔRAD2 OA” value [5] was 0.7.

B6: L1P12 G10: acrylodan-labeled rI-FABP mutein: Y14 I, L38 wt, L72 wt, Y117 wt (protein, UniProt P02693 2-132, looked up, variant Y14I)
Fatty acid-binding protein, …: B1 Fatty acid-binding protein, … with I38L, V72L
modifications: acrylodan label
For B6, the “ΔR/ΔRAD2 PA” value [1] was 0.8, the “ΔR/ΔRAD2 LA” value [2] was 0.9 and the “ΔR/ΔRAD2 AA” value [3] was 0.8. For the same molecule, the “ΔR/ΔRAD2 LNA” value [4] was 1.0 and the “ΔR/ΔRAD2 OA” value [5] was 0.5.

B7: L1P17 A8: acrylodan-labeled rI-FABP mutein: Y14 wt, L38 M, L72 G, Y117 F (protein, UniProt P02693 2-132, looked up, variant L38M L72G Y117F)
Fatty acid-binding protein, …: B1 Fatty acid-binding protein, … with I14Y, I38M, V72G, Y117F
modifications: acrylodan label
notes: acrylodan-labeled rI-FABP mutein: Y14 wt, L38 M, L72 G, Y117 F
For B7, the “ΔR/ΔRAD2 PA” value [1] was 0.4, the “ΔR/ΔRAD2 LA” value [2] was 0.8 and the “ΔR/ΔRAD2 AA” value [3] was 1.3. The “ΔR/ΔRAD2 LNA” value [4] was 0.7 and the “ΔR/ΔRAD2 OA” value [5] was 0.7.

B8: L1P14 A9: acrylodan-labeled rI-FABP mutein: Y14 L, L38 wt, L72 G, Y117 I (protein, UniProt P02693 2-132, looked up, variant Y14L L72G Y117I)
Fatty acid-binding protein, …: B1 Fatty acid-binding protein, … with I14L, I38L, V72G, Y117I
modifications: acrylodan label
notes: acrylodan-labeled rI-FABP mutein: Y14 L, L38 wt, L72 G, Y117 I
For B8, the “ΔR/ΔRAD2 PA” value [1] was 0.2, the “ΔR/ΔRAD2 LA” value [2] was 0.8 and the “ΔR/ΔRAD2 AA” value [3] was 0.8. For the same molecule, the “ΔR/ΔRAD2 LNA” value [4] was 0.8 and the “ΔR/ΔRAD2 OA” value [5] was 0.4.

B9: L1P11 F12: acrylodan-labeled rI-FABP mutein: Y14 L, L38 I, L72 wt, Y117 wt (protein, UniProt P02693 2-132, looked up, variant Y14L L38I)
Fatty acid-binding protein, …: B1 Fatty acid-binding protein, … with I14L, V72L
modifications: acrylodan label
In the case of B9, the “ΔR/ΔRAD2 PA” value [1] is reported as 0.7, the “ΔR/ΔRAD2 LA” value [2] is reported as 1.1 and the “ΔR/ΔRAD2 AA” value [3] is reported as 1.0. For the same molecule, the “ΔR/ΔRAD2 LNA” value [4] was 1.2 and the “ΔR/ΔRAD2 OA” value [5] was 0.7.
